This is an account of results in publication PMC2909587.

This assay concerns the target taxol-stabilised pig-brain MTs (pig) (UniProt P02550). Nature of the assay: co-sedimentation.

Take “CENP-Q (from UniProt Q7L2Z9 1-268) (natural protein)”: the dissociation constant Kd amounted to 700 nM and the stoichiometry N was 6 CENP-Q:MT.

For orientation: Kd means the constant that tells how readily two partners part at equilibrium. A high value points to weaker binding. A word on the stoichiometry N: it is a count of units in the complex or per binding partner.
